Laboratory results: the supplement of paper PMC10065799, “High-throughput profiling of sequence recognition by tyrosine kinases and SH2 domains using bacterial peptide display” (eLife, 2023)

Tests used:
AncSZ = test: phosphorylation enrichment, bacterial display (enrichment ratio); higher = better substrate or ligand; peptides without Tyr show the background
EPHB1 = EPHB1 (UniProt P54762); test: as above
EPHB2 = EPHB2 (UniProt P29323); test: as above
FGFR1 = FGFR1 (UniProt P11362); test: as above
Chain of FGFR1 (P11362 whole entry, looked up): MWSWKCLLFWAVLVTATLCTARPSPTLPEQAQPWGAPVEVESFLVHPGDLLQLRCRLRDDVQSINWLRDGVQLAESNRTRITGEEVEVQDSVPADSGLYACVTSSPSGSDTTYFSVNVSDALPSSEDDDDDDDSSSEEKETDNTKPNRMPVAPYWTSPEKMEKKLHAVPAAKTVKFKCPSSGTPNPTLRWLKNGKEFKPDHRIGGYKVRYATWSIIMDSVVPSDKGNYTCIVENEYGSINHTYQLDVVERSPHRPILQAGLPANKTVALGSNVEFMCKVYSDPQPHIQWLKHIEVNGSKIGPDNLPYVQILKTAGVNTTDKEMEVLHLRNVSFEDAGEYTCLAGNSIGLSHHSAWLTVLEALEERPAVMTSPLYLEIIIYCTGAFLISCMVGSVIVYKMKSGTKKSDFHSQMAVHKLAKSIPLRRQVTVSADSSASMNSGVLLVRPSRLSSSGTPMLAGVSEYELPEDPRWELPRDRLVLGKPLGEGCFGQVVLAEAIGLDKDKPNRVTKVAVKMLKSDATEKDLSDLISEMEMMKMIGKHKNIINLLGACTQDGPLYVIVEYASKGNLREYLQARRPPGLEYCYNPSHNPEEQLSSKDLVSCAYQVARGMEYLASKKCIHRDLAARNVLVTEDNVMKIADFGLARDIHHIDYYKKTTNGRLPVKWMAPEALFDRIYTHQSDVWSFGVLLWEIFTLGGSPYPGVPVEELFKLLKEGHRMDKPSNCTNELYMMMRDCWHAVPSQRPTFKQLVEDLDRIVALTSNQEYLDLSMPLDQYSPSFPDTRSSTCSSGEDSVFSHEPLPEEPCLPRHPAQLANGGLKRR

FGFR3 = FGFR3 (UniProt P22607); test: as above
Fer (mouse) = test: as above
Fes = Fes (UniProt P07332); test: as above
Chain of Fes (P07332 whole entry, looked up): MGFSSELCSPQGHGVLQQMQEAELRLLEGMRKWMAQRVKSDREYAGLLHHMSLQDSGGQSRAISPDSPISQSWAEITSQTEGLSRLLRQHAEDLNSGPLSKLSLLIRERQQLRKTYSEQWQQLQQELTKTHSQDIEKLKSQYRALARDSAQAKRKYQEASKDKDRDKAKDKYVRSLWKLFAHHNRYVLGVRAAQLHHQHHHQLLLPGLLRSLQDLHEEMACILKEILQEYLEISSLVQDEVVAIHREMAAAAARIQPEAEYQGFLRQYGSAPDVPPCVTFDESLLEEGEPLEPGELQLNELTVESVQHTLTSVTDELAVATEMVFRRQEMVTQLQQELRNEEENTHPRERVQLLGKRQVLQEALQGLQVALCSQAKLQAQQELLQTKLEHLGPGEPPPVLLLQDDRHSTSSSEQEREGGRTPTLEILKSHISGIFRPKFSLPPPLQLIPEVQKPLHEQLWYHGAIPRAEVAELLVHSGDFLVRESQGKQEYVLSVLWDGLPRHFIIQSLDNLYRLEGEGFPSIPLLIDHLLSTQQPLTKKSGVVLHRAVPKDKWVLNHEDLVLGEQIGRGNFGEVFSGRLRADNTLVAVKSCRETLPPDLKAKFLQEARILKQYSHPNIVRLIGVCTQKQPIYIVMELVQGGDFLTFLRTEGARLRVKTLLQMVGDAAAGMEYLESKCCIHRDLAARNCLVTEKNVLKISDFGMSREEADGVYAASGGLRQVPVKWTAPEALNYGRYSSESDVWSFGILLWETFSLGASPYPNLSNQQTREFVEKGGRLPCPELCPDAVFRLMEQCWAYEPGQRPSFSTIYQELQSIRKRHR

Fyn = Fyn (UniProt P06241); test: as above
Hck = Hck (UniProt P08631); test: as above
Jak2 = Jak2 (UniProt O60674); test: as above
Chain of Jak2 (O60674 whole entry, looked up): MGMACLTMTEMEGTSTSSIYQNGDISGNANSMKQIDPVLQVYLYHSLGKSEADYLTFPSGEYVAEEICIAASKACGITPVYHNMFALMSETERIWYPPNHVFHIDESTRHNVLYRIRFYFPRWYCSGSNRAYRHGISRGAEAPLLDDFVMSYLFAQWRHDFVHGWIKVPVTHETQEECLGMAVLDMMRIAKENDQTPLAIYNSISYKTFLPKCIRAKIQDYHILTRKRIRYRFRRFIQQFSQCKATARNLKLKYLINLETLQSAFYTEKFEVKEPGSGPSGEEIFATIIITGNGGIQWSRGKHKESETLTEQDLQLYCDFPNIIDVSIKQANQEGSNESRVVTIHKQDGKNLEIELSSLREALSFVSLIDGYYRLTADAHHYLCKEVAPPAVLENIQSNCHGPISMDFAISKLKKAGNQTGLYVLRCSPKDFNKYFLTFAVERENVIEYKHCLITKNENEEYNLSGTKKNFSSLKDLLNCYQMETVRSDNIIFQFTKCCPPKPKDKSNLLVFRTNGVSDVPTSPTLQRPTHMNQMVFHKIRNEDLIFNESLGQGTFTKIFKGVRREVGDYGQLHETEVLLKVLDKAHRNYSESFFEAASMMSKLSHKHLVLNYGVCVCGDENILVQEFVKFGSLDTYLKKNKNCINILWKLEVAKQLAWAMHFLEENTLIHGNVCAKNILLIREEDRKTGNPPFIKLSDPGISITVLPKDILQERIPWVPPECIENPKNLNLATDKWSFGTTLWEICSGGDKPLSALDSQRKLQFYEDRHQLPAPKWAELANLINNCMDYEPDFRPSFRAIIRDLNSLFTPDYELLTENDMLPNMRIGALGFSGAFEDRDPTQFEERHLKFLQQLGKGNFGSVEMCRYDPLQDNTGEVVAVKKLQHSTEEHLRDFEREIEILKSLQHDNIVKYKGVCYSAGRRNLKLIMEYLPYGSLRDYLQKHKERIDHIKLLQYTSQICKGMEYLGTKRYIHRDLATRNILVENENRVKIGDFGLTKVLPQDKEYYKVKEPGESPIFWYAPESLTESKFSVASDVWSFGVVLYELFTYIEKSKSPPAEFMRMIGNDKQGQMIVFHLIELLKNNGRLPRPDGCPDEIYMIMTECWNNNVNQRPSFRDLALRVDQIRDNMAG

MERTK = MERTK (UniProt Q12866); test: as above
c-Abl (mouse) = test: as above
c-Src = test: as above
Grb2 SH2 = Grb2 SH2 (UniProt P62993); test: SH2 binding enrichment of the phosphorylated peptide, bacterial display (enrichment ratio); higher = better substrate or ligand; peptides without Tyr show the background
SHP2-C SH2 = test: as above
c-Src SH2 = test: as above
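For SH2 binding enrichment of the phosphorylated peptide, bacterial display in this document: peptide library displayed on the E. coli surface as eCPX fusions, selected cells deep-sequenced, score is each peptide's frequency after selection divided by its frequency in the input.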
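For phosphorylation enrichment, bacterial display in this document: 11-residue human phosphosite peptides and single-mutation variants displayed on the E. coli surface, counted by deep sequencing, each peptide's frequency after selection divided by its frequency in the unselected input library; frequency after pTyr selection over input frequency; kinase dosed for 20-30% of maximal phosphorylation in three min.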

Chain of EPHB2 (P29323 whole entry, looked up): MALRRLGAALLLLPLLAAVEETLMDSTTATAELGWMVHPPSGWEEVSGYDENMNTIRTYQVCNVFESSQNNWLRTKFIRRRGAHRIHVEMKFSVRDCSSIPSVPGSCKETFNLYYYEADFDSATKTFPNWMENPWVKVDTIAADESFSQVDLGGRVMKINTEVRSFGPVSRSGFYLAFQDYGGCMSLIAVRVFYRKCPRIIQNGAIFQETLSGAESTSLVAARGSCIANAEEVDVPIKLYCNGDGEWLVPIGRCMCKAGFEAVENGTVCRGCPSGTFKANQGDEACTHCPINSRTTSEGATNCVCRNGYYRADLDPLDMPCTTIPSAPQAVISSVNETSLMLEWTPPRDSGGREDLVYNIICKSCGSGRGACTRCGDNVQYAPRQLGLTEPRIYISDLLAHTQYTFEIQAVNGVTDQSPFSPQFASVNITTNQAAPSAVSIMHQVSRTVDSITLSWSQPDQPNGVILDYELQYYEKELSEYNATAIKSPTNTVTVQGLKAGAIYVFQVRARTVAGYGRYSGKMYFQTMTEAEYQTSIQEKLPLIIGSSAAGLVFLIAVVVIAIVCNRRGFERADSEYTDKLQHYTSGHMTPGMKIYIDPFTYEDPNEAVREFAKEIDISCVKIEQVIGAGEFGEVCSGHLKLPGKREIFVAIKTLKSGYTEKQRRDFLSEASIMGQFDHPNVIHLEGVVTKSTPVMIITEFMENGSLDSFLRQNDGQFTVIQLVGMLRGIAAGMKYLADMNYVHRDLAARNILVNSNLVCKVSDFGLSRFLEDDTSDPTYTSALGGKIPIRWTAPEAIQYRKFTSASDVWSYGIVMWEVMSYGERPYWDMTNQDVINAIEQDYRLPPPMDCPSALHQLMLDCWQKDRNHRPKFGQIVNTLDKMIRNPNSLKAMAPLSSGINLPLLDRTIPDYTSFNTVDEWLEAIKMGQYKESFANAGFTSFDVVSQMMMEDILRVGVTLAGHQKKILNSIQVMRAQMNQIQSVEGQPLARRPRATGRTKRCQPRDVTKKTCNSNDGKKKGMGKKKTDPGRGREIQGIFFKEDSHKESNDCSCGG
Chain of EPHB1 (P54762 whole entry, looked up): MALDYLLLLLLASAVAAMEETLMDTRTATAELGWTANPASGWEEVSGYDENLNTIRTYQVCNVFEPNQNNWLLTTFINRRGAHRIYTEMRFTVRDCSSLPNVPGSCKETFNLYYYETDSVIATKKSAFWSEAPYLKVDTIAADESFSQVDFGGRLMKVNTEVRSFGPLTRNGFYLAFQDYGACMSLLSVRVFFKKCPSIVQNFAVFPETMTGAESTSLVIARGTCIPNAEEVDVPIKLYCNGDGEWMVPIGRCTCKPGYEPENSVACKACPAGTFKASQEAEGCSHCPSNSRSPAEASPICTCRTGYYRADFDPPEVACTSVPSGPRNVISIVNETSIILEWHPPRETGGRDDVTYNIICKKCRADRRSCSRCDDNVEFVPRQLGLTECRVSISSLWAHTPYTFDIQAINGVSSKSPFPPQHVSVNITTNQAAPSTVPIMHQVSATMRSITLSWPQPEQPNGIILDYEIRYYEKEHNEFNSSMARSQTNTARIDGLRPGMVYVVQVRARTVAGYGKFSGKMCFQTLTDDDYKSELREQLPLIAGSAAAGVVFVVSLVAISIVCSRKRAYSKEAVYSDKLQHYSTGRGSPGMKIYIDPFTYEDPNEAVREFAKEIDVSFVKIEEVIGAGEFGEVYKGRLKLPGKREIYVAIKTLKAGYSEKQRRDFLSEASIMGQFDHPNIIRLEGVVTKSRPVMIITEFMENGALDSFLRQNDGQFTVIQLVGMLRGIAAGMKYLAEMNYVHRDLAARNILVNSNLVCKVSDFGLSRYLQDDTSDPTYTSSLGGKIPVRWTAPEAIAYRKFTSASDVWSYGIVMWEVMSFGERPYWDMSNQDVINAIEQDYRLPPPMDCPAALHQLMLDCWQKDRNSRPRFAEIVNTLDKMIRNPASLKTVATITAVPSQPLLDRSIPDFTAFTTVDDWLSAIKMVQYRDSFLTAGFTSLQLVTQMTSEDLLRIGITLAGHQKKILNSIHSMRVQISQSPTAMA

Sequence	SH2 binding enrichment (Grb2 SH2)	SH2 binding enrichment (SHP2-C SH2)	SH2 binding enrichment (c-Src SH2)	phosphorylation enrichment (AncSZ)	phosphorylation enrichment (EPHB1)	phosphorylation enrichment (EPHB2)	phosphorylation enrichment (FGFR1)	phosphorylation enrichment (FGFR3)	phosphorylation enrichment (Fer (mouse))	phosphorylation enrichment (Fes)	phosphorylation enrichment (Fyn)	phosphorylation enrichment (Hck)	phosphorylation enrichment (Jak2)	phosphorylation enrichment (MERTK)	phosphorylation enrichment (c-Abl (mouse))	phosphorylation enrichment (c-Src)
PADCRYYTFPQ [GAMT_Y222_A224T]	1.01	1.36	2.15	4.04	3.34	2.18	6	5	4.15	2.01	2.82	2.64	4.4	11	1.7	5.45
HEHVGYTTLNR [CHN1_Y148_Y143H]	0.88	61.4	3.47	0.63	0.498	0.429	0.573	0.744	0.351	0.667	0.489	0.57	0.669	0.44	0.936	0.618
AVRVFYRKCPR [EPHB2_Y194]	0.611	0.529	0.417	0.948	0.345	0.463	0.428	0.645	0.518	0.655	0.464	0.512	0.7	0.517	0.78	0.557
HKLSFCEFDFE [BTK_Y40_Y40C_YF]	1.11	0.937	0.622	3.33	0.934	0.787	0.844	1.34	0.965	3.4	0.764	0.83	2.48	0.776	1.78	1.03
VIEFSYTSADG [DHCR7_Y382_C380Y_YF]	0.87	0.858	1.97	0.944	0.562	0.504	0.444	0.652	0.499	1.16	0.442	0.503	0.764	0.415	0.608	0.341
MLEVPYVDRNS [F10_Y384]	0.724	0.708	0.457	0.847	0.499	0.494	0.411	0.643	0.434	0.89	0.382	0.453	0.789	0.317	0.611	0.395
VPFAQYLAMNK [HARS1_Y138_R137Q]	0.959	0.798	0.533	0.685	0.488	0.431	0.494	0.536	0.406	0.639	0.458	0.54	0.838	0.403	0.504	0.44
MFKPMYALFRT [HUWE1_Y4078_N4075K]	1.35	1.86	1.52	0.921	0.963	0.621	0.606	0.698	0.815	0.982	0.779	0.872	0.704	2.87	1.85	1.75
SLFNGYVFSGM [NEIL3_Y71_V76M_YF]	0.938	1.1	1.45	0.954	0.532	0.541	0.487	0.629	0.504	1.07	0.421	0.531	1.08	0.435	0.697	0.482
KIKLNYTLPQD [NRAP_Y523_N519I]	0.965	0.751	0.774	0.965	0.49	0.447	0.48	0.623	0.513	0.88	0.454	0.462	0.721	0.53	0.531	0.454
LTTEAYEWEPC [ELMOD3_Y61_R66C]	1.02	0.959	1.37	5.1	3.5	2.44	2.04	3.7	2.88	6.22	1.58	1.88	6.69	1.57	4.16	5.66
LADMNYVHCDL [EPHB2_Y742_R745C]	0.823	0.83	0.684	1.01	0.889	0.578	0.811	1.09	0.535	0.97	0.57	0.469	0.728	0.448	0.652	0.369
TFFQMYDKGLV [IARS2_Y231_YF]	0.99	0.7	0.526	0.862	0.531	0.569	0.52	0.623	0.57	1.14	0.566	1.06	1.03	0.542	0.734	0.537
PSPMPCASCQM [FOXL2_Y215_Y215C]	0.797	0.606	0.523	0.541	0.354	0.287	0.445	0.559	0.488	0.516	0.603	0.41	0.766	0.588	0.799	0.37
QNRELYSEGLG [CNKSR1_Y665]	0.74	0.616	0.536	0.516	0.536	0.454	0.578	0.397	0.309	0.789	0.434	0.895	0.497	0.443	1.33	0.446
YCRHNYGVGES [HLA-DRB1_Y112_V115G]	0.936	0.838	0.823	0.686	0.492	0.473	0.549	0.534	0.361	0.913	0.487	0.383	0.65	0.582	0.602	0.552

The next lines start with results.

SH2 binding enrichment (Grb2 SH2)	SH2 binding enrichment (SHP2-C SH2)	SH2 binding enrichment (c-Src SH2)	Sequence	phosphorylation enrichment (AncSZ)	phosphorylation enrichment (EPHB1)	phosphorylation enrichment (EPHB2)	phosphorylation enrichment (FGFR1)	phosphorylation enrichment (FGFR3)	phosphorylation enrichment (Fer (mouse))	phosphorylation enrichment (Fes)	phosphorylation enrichment (Fyn)	phosphorylation enrichment (Hck)	phosphorylation enrichment (Jak2)	phosphorylation enrichment (MERTK)	phosphorylation enrichment (c-Abl (mouse))	phosphorylation enrichment (c-Src)
1.26	0.866	2.2	LLQKTYNYNVL [SLC4A1_Y553_P548L]	1.26	0.745	1.7	1.23	1.06	0.496	1.52	1.07	1.01	0.834	0.694	0.716	0.851
0.918	0.678	0.536	RRIHSYRRHLW [VHL_Y112_G114R]	0.735	0.725	0.82	0.868	0.718	0.529	0.699	0.65	0.746	0.633	0.707	0.699	0.584
0.842	0.938	10.9	HRDSSYYWEIE [RAF1_Y340_Q335H]	1.69	3.07	1.72	6.05	4.34	0.612	1.67	1.97	1.47	1.03	4.59	0.818	1.92
0.731	0.814	0.771	IDSTPYRQWYE [RPS8_Y109]	1.28	0.455	0.501	0.521	0.753	0.51	1.05	0.492	0.514	0.79	0.424	0.608	0.606
1.36	1.38	1.62	FSCLPCGRLAF [SLC52A2_Y305_Y305C_YF]	0.752	0.442	0.404	0.657	0.542	0.423	0.868	0.354	0.389	0.67	0.532	0.55	0.33
0.767	0.592	0.705	FEPWVYSFSYE [PRKDC_Y647]	1.43	0.759	0.654	0.655	1.03	1.35	1.36	6.53	2.94	1.3	1.22	0.861	5.83
0.78	0.739	0.521	GESKDYALHAG [SVIL_Y185_V189A]	0.548	0.479	0.527	0.365	0.455	0.366	0.566	0.421	0.38	0.493	0.36	0.488	0.413
0.633	0.963	0.476	TEDELYQLFLQ [RASGRP2_Y378_S381F]	3.06	1.05	0.825	1.37	1.9	8.85	1.56	4.54	3.67	1.3	2.01	1.13	4.23
0.963	0.58	0.747	QITQVCGFYDE [PPP2CA_Y127_Y127C]	1.21	1.1	0.849	0.648	0.995	0.856	1.57	0.636	0.865	1.19	0.522	1.08	0.823
0.804	0.465	0.455	FSCLPYGRLAY [SLC52A2_Y305]	1.01	0.559	0.513	0.463	0.641	0.619	0.98	0.618	0.894	0.782	0.393	0.595	1.84
1.28	1.16	1.06	VLALWYFFLTH [ZDHHC23_Y127_YF]	1.42	0.963	0.676	2.08	1.76	0.644	1.76	0.614	0.682	2.27	0.882	1.01	0.602
0.848	0.576	0.438	TTTQAYRVNER [PRKN_Y391_D394N]	0.496	0.445	0.31	0.421	0.386	0.447	0.514	0.324	0.397	0.531	0.4	0.492	0.473
0.787	0.62	0.451	GGFTCCCDGKK [PROS1_Y266_Y266C_YF]	1.12	0.736	0.659	0.509	0.755	0.542	1.34	0.463	0.504	1.16	0.468	0.977	0.546
0.721	0.766	0.593	TRNRDYDDIDD [TTYH2_Y424]	1.02	0.497	0.563	0.562	0.665	0.438	0.917	0.451	0.527	0.734	0.507	0.621	0.448
0.887	0.914	0.633	DSEIRYLSADS [TTF1_Y476]	0.964	0.489	0.547	0.546	0.709	0.551	0.933	0.526	0.458	0.868	0.461	0.727	0.51
0.831	1.01	0.513	ELELLYPDRNS [NYX_Y284_L285P]	1.17	0.556	0.544	0.776	0.759	0.463	1.27	0.492	0.534	1.03	0.433	0.799	0.489
0.829	0.769	0.635	NLRQQYNSPQE [UMPS_Y432_G429R]	0.634	0.382	0.439	0.464	0.43	0.345	0.587	0.437	0.451	0.592	0.293	0.354	0.316
